Source: patent publication US20260242417A1

Target: Patched

Mean luminescence intensity (Gli-luciferase reporter, NIH3T3 cells) (luminescence intensity): 6460
Substance: Recombinant mouse Sonic HedgeHog (mShh) (from UniProt Q62226) (ligand)
